Test results: article PMC9088798, “An Approach to Derive Functional Peptide Inhibitors of Transcription Factor Activity” (JACS Au, 2022)

Tested on: WT-mDHFR
Assay: DHFR activity assay (NADPH turnover at 340 nm), WT-mDHFR
Format: biochemical, murine
Conditions: 100 nM WT-mDHFR, 60 µM NADPH, 50 µM DHF, no inhibitor; absorbance 340 nm; first 2.5 min, blank subtracted; average of triplicate experiments, one SD
Procedure: (A) Fifteen TRE sites were introduced into the mDHFR gene (2 silent and 13 substitutions) to allow for a cJun-induced transcriptional block. […] Change in absorbance at 340 nm was measured to determine the rate of NADPH turnover by (B) WT-mDHFR and (C) TRE-mDHFR with or without the substrate DHF. […] Specific activity was calculated from the linear initial rate (first 2.5 min for WT-mDHFR, first 10 min for TRE-mDHFR; +NADPH only reaction blank subtracted). Data are averages from triplicate experiments with errors shown as one standard deviation.
Jupiter Proteo column (4-μm particle size, 90 Å pore size, 250 × 10 mm; Phenomenex) using a water:acetonitrile gradient (0.1% TFA). Peptides without a SUMO tag, were concentrated after Histrap elution and HPLC purified. […]
or Mtx (1 µM in reaction). Reactions were initiated by the addition of DHF (50 µM in reaction plus a blank reaction with no DHF) and the absorbance at 340 nm of samples was measured using a Varian Cary 50 UV-Vis spectrophotometer. The specific activity (∆OD/minsample― ∆OD/minblank) was calculated using the following equation. Specific activity = 12.3× mg protein Library Construction and TBS Assay: Library inserts were produced using PCR fill-in reactions from synthesised primers (Sigma) with degenerate codons at the desired positions to produce the correct residue options. […]

B1: WT-mDHFR: wild-type murine dihydrofolate reductase, 6xHis-tagged (protein, UniProt P00375 2-187, looked up)
Dihydrofolate reductase: VRPLNCIVAVSQNMGIGKNGDLPWPPLRNEFKYFQRMTTTSSVEGKQNLVIMGRKTWFSIPEKNRPLKDRINIVLSRELKEPPRGAHFLAKSLDDALRLIEQPELASKVDMVWIVGGSSVYQEAMNQPGHLRLFVTRIMQEFESDTFFPEIDLGKYKLLPEYPGVLSEVQEEKGIKYKFEVYEKKD
modifications: 6xHis tag
notes: wild-type murine dihydrofolate reductase, 6xHis-tagged
Question: How did the “Specific activity, +NADPH+DHF” value turn out when B1 was run?
Answer: 0.263 ± 0.002 μmol / min / mg protein
